Test results as given in patent US20230301998A1 (SANFORD BURNHAM PREBYS MEDICAL DISCOVERY INSTITUTE, published 2023).

Experiments:
Test in all cases: Flag IP of Flag-SHARPIN from WM115 lysate, on-bead tryptic digestion, LC/MS-MS
RBM10 = molecular target: T1, RBM10 (human, UniProt P98175 1-930, limits assumed)
T1 construct: endogenous protein co-purified from WM115 lysate
Method: (§1) To identify SHARPIN-interacting proteins, WM115 cells were transfected with Flag-tagged SHARPIN or control empty plasmid. Cell lysates were prepared using 1% Triton X-100 buffer [50 mM Tris-HCl, pH7.4, 1% (v/v) Triton X-100, 150 mM NaCl, 1 mM EDTA, and protease and phosphatase inhibitor cocktails (Thermo Fisher Scientific)]. Lysates were pre-cleared with protein A/G beads (Santa Cruz Biotechnology) for 1 h at 4° C. followed by immunoprecipitation using FLAG-M2-agarose beads (Sigma-Aldrich) overnight at 4° C. Beads were then washed with lysis buffer and TBS containing lx protease inhibitor cocktail before being subjected to on-bead tryptic digestion followed by mass spectrometry. In Vitro Methylation Assay.

HSPA5 = molecular target: T2, HSPA5 (human, UniProt P11021 19-654)
T2 construct: endogenous protein co-purified from WM115 lysate
Method: as §1

CLTC = molecular target: T3, CLTC (human, UniProt Q00610 2-1675)
T3 construct: endogenous protein co-purified from WM115 lysate
Method: as §1

DYNC1H1 = molecular target: T4, DYNC1H1 (human, UniProt Q14204 2-4646)
T4 construct: endogenous protein co-purified from WM115 lysate
Method: as §1

FLNA = molecular target: T5, FLNA (human, UniProt P21333 2-2647, limits assumed)
T5 construct: endogenous protein co-purified from WM115 lysate
Method: as §1

VIM = molecular target: T6, VIM (human, UniProt P08670 2-466)
T6 construct: endogenous protein co-purified from WM115 lysate
Method: as §1

HSPD1 = molecular target: T7, HSPD1 (human, UniProt P10809 27-573)
T7 construct: endogenous protein co-purified from WM115 lysate
Method: as §1

PMEL = molecular target: T8, PMEL (human, UniProt P40967 25-661, limits assumed)
T8 construct: endogenous protein co-purified from WM115 lysate
T8 sequence (looked up): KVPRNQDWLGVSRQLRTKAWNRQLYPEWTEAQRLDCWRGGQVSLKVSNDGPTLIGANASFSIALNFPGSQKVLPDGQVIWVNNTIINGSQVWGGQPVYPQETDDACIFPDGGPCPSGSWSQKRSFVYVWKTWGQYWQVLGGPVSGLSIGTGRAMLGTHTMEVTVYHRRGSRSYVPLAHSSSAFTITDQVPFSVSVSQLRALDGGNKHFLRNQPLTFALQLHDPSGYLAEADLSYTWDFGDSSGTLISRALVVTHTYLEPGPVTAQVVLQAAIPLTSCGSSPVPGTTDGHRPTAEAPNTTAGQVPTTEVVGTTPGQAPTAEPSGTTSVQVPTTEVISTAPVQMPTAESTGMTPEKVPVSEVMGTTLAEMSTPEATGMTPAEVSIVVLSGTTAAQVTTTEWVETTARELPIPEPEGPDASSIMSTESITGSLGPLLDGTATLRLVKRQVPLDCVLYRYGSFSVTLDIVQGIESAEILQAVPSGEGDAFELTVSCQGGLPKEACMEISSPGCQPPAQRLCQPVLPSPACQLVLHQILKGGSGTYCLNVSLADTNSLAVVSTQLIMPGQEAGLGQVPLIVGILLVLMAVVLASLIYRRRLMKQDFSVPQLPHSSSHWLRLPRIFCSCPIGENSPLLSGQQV
Method: as §1

HSPA8 = molecular target: T9, HSPA8 (human, UniProt P11142 2-646)
T9 construct: endogenous protein co-purified from WM115 lysate
Method: as §1

PNKP = molecular target: T10, PNKP (human, UniProt Q96T60 1-521)
T10 construct: endogenous protein co-purified from WM115 lysate
Method: as §1

[1] = molecular target: T11, Gamma-interferon-inducible protein 16 (IFI16) (human, UniProt Q16666 1-785)
T11 construct: Endogenous protein in WM115 / A375
T11 sequence: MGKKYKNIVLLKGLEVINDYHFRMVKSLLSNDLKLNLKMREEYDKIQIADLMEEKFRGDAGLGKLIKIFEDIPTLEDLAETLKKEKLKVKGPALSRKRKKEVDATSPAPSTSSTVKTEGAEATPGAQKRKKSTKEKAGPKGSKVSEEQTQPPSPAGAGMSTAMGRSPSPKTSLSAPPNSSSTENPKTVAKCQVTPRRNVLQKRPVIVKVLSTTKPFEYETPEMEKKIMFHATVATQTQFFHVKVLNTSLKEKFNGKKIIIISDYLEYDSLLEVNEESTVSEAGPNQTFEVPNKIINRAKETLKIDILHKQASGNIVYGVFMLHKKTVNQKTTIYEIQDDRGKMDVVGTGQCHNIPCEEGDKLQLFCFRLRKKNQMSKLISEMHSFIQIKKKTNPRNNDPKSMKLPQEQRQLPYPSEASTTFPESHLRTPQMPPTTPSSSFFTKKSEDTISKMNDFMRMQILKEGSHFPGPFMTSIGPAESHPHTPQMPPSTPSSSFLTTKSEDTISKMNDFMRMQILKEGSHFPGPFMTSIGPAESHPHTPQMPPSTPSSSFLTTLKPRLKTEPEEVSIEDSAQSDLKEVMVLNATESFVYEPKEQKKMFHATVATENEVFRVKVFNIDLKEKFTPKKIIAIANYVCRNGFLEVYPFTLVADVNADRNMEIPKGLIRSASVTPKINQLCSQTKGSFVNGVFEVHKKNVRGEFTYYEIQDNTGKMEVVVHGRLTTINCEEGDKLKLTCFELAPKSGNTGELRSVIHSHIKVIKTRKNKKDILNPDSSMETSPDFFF
Method: as §1

FASN = molecular target: T12, FASN (human, UniProt P49327 1-2511)
T12 construct: endogenous protein co-purified from WM115 lysate
Method: as §1

PKM = molecular target: T13, PKM (human, UniProt P14618 2-531, limits assumed)
T13 construct: endogenous protein co-purified from WM115 lysate
Method: as §1

Measured: binding result

T12 sequence (P49327 whole entry): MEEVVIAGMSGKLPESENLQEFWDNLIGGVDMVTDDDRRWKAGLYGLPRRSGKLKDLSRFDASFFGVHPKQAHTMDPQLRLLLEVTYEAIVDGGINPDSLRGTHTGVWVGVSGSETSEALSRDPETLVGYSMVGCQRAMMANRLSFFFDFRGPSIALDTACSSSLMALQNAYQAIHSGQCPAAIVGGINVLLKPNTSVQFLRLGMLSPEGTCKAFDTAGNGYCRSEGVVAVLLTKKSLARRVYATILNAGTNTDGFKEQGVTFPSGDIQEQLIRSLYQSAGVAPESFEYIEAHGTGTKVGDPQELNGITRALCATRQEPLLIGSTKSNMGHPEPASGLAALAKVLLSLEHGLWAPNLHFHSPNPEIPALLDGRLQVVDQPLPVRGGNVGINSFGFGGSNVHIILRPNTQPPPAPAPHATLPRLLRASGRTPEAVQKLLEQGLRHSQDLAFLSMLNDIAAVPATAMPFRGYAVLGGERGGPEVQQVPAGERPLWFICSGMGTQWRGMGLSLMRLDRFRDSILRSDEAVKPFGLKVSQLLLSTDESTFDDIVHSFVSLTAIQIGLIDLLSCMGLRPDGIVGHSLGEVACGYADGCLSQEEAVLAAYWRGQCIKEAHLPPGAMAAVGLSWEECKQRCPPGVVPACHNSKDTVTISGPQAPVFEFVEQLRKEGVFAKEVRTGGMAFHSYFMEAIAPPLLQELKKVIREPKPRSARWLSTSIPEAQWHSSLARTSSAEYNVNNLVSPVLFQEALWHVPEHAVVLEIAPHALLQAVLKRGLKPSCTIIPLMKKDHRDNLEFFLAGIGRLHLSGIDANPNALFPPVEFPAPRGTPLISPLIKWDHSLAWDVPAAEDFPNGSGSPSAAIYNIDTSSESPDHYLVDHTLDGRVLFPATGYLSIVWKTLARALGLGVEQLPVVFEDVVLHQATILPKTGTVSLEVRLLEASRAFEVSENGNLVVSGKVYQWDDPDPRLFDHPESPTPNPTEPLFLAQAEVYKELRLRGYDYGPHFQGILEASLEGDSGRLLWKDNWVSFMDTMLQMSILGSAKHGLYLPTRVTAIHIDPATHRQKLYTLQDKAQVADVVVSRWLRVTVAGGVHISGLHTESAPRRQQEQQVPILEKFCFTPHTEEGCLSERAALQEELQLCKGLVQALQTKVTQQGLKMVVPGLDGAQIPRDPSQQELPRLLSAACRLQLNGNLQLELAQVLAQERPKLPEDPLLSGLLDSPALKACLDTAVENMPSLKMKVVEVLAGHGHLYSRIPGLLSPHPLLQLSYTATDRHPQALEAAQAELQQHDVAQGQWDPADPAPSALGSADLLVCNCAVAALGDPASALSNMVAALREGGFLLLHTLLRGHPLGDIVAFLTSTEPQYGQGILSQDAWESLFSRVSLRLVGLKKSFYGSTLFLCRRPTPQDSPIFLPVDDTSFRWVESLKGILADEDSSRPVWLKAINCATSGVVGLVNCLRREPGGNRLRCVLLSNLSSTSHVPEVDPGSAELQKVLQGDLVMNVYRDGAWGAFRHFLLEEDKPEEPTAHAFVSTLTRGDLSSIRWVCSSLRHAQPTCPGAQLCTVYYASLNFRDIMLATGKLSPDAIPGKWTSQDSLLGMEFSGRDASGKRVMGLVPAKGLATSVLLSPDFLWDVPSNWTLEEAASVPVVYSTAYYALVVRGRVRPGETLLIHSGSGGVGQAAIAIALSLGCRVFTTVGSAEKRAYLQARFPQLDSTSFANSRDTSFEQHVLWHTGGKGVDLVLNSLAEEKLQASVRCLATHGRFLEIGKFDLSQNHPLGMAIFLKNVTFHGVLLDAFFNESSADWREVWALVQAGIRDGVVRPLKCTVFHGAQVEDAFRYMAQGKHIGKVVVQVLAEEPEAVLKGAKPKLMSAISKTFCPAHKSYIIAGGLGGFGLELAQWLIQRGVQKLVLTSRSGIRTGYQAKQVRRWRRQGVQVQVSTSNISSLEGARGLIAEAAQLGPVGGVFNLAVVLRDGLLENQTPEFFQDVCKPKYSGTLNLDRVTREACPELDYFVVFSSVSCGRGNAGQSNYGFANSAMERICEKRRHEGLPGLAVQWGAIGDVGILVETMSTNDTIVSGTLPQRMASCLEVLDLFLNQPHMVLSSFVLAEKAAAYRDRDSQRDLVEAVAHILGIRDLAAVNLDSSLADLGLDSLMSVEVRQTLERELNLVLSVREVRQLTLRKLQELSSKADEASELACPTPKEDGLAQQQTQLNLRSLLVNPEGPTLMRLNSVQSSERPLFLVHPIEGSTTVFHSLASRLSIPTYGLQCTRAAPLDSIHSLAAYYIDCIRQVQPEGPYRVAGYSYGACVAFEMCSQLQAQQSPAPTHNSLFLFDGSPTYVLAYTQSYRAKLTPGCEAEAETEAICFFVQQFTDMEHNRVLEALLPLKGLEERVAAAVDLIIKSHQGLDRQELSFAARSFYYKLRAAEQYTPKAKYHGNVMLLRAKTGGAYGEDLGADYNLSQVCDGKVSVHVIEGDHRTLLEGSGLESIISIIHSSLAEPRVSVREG
T1 sequence (P98175 whole entry): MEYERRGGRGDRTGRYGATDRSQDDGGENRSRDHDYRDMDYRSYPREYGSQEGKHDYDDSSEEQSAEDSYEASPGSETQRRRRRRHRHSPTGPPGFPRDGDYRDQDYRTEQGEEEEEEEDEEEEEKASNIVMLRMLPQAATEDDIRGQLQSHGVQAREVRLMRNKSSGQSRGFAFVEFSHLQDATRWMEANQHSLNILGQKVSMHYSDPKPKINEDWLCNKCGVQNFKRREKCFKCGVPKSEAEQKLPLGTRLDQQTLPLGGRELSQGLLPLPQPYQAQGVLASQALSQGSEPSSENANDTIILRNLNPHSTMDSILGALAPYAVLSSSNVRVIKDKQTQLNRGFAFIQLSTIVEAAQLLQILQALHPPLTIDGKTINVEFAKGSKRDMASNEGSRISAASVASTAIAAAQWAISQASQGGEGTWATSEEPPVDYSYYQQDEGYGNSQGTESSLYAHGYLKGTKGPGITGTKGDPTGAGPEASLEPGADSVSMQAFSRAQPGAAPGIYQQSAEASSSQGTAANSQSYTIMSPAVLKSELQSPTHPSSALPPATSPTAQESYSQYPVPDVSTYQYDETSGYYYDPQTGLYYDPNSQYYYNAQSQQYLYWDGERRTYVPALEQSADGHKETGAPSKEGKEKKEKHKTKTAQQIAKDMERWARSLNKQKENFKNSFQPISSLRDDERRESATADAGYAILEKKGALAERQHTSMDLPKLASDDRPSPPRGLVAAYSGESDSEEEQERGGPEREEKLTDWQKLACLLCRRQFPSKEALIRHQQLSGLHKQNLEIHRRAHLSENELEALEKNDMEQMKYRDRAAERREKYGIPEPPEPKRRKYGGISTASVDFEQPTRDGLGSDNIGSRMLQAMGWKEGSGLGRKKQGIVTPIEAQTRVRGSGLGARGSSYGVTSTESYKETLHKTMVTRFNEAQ
T7 sequence (P10809 27-573 limits assumed): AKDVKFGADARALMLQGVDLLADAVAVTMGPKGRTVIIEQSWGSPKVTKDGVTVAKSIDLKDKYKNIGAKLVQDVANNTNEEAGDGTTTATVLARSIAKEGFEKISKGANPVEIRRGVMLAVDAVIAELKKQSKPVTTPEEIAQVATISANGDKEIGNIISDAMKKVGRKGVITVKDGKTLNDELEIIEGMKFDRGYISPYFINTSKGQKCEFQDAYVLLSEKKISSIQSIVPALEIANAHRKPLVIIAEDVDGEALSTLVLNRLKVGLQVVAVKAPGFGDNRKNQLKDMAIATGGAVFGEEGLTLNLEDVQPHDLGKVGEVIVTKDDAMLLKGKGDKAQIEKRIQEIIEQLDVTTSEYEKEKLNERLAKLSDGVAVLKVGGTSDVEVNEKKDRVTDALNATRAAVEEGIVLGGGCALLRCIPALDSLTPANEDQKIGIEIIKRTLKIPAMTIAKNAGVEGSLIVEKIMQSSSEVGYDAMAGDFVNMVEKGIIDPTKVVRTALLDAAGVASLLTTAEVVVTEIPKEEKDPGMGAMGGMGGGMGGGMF
T6 sequence (P08670 2-466 limits assumed): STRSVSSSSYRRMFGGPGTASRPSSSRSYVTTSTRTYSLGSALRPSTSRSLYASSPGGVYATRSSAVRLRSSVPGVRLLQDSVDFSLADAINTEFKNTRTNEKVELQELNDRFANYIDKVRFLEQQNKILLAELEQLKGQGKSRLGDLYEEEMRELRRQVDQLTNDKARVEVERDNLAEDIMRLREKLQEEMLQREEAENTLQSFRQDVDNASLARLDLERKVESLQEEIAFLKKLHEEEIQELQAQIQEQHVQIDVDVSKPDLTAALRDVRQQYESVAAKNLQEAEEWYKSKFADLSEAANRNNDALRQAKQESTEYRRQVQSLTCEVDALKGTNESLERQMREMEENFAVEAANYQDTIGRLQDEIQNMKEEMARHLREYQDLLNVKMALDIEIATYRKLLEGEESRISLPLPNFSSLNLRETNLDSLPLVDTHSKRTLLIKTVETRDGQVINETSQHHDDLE

B1: Flag-tagged SHARPIN (other, human, UniProt Q9H0F6 1-387, looked up)
chain: MAPPAGGAAAAASDLGSAAVLLAVHAAVRPLGAGPDAEAQLRRLQLSADPERPGRFRLELLGAGPGAVNLEWPLESVSYTIRGPTQHELQPPPGGPGTLSLHFLNPQEAQRWAVLVRGATVEGQNGSKSNSPPALGPEACPVSLPSPPEASTLKGPPPEADLPRSPGNLTEREELAGSLARAIAGGDEKGAAQVAAVLAQHRVALSVQLQEACFPPGPIRLQVTLEDAASAASAASSAHVALQVHPHCTVAALQEQVFSELGFPPAVQRWVIGRCLCVPERSLASYGVRQDGDPAFLYLLSAPREAPATGPSPQHPQKMDGELGRLFPPSLGLPPGPQPAASSLPSPLQPSWSCPSCTFINAPDRPGCEMCSTQRPCTWDPLAAAST
notes: also called Flag-SHARPIN; not shown: FLAG tag
binds: all assays above
